“Also recorded” adds a separate entry of the source.
Key:
RfLac6 = test: Recombinant laccase Lac6 inhibition and enhancement, 2,6-DMP oxidation; type: biochemical, Reticulitermes flavipes; conditions: 1 mM 2,6-DMP, pH 7.5
Method: Enzyme and inhibitors were pre-incubated 5 min at room temperature on an orbital shaker before adding substrate.

recombinant RfBGluc-1 = test: Inhibition of recombinant RfBGluc-1; type: biochemical, Reticulitermes flavipes; conditions: 25° C., sodium acetate 0.1M pH 7, 2 mM p-nitrophenyl-B-D-glucopyranoside
Method: Assays were conducted at 25° C. in sodium acetate buffer (0.1M, pH 7) using 2 mM p-nitrophenyl-B-D-glucopyranoside as the substrate.

[1] = system: R. flavipes worker gut esterases; test: Gut esterase activity toward naphthyl esters, native PAGE and colorimetric microplate assays; type: biochemical, Reticulitermes flavipes; conditions: foregut/salivary gland, midgut, hindgut
Method: Dissections, protein preparation, centrifugation protocols, and protein assays: All manipulations were performed on ice. For tissue localization studies, 25 termite worker guts were removed and dissected into the three regions of foregut/salivary gland, midgut and hindgut. Each gut region preparation was homogenized using a Tenbroeck glass homogenizer in potassium phosphate (0.1M, pH 7.6), and then centrifuged for 15 min at 14,000×g and 4° C. The supernatant was saved for assays and the pellet discarded.
Gut esterase activity toward naphthyl esters with varying carbon chain lengths: Activities toward different naphthyl ester substrates were investigated in different regions of the termite gut using native PAGE, as above, the results being shown in FIGS. 4 and 5. […].
. Differences in activity between α-naphthyl butyrate and acetate were not as evident on native PAGE as in activity assays. Thus, the majority/greatest diversity of gut esterase activity in R. flavipes is located in the midgut, and that activity is greatest toward the 3-carbon ester naphthyl propionate. […]

[2] = substrate: COc1cccc(OC)c1O; test: purified protein, by the assay type; conditions: other: RfLacA; substrate concentration providing ½ maximal activity
[3] = substrate: Oc1ccccc1O; test: purified protein, by the assay type; conditions: other: RfLacA
[4] = substrate: COc1cc(/C=C/C(=O)O)cc(OC)c1O; test: purified protein, by the assay type; conditions: other: RfLacA
[5] = substrate: O=[N+]([O-])c1ccccc1O[C@@H]1O[C@H](CO)[C@@H](O)[C@H](O)[C@H]1O; test: Activity of recombinant RfBGluc-1 towards synthetic nitrophenol substrates, kinetic microplate assay; type: biochemical, Reticulitermes flavipes; conditions: other: synthetic NP substrates; read kinetically at 420 nm; mean ± standard error, 3-5 replicates; pH 6.0
Method: (§1) All initial characterization assays took place in 0.1 M sodium acetate buffer (pH 6) using 2 μL of recombinant enzyme preparation (=1.58 μg protein per assay) in a total reaction volume of 250 μL. Synthetic p-nitrophenol substrates (Table 1) were tested in direct kinetic assays using a microplate reader. Reactions were initiated by adding 248 μL assay buffer to 2 μL protein. Assays were read at 420 nm every 20 sec for 5 min to yield mean velocity data in mOD/min. Specific activity was determined with the p-nitrophenol extinction coefficient of 0.6605 mM^−1 cm^−1. All results were averaged from three independent replicates, each conducted in triplicate.

[6] = substrate: O=[N+]([O-])c1ccc(O[C@@H]2O[C@H](CO)[C@@H](O)[C@H](O)[C@H]2O)cc1; test: as above; type: biochemical, Reticulitermes flavipes; conditions: other: synthetic NP substrates; read kinetically at 420 nm; mean ± standard error, 3-5 replicates; pH 6.0
Method: as §1

[7] = substrate: C[C@H]1O[C@@H](Oc2ccc([N+](=O)[O-])cc2)[C@H](O)[C@@H](O)[C@H]1O; test: as above; type: biochemical, Reticulitermes flavipes; conditions: other: synthetic NP substrates; read kinetically at 420 nm; mean ± standard error, 3-5 replicates; pH 6.0
Method: as §1

[8] = substrate: O=[N+]([O-])c1ccccc1O[C@@H]1OC[C@@H](O)[C@H](O)[C@H]1O; test: as above; type: biochemical, Reticulitermes flavipes; conditions: other: synthetic NP substrates; read kinetically at 420 nm; mean ± standard error, 3-5 replicates; pH 6.0
Method: as §1

[9] = substrate: O=[N+]([O-])c1ccc(O[C@@H]2O[C@H](CO)[C@@H](O[C@@H]3O[C@H](CO)[C@@H](O)[C@H](O)[C@H]3O)[C@H](O)[C@H]2O)cc1; test: as above; type: biochemical, Reticulitermes flavipes; conditions: other: synthetic NP substrates; read kinetically at 420 nm; mean ± standard error, 3-5 replicates; pH 6.0
Method: as §1

[10] = substrate: O=[N+]([O-])c1ccc(O[C@@H]2O[C@H](CO)[C@@H](O[C@@H]3O[C@H](CO)[C@@H](O[C@@H]4O[C@H](CO)[C@@H](O[C@@H]5O[C@H](CO)[C@@H](O)[C@H](O)[C@H]5O)[C@H](O)[C@H]4O)[C@H](O)[C@H]3O)[C@H](O)[C@H]2O)cc1; test: as above; type: biochemical, Reticulitermes flavipes; conditions: other: synthetic NP substrates; read kinetically at 420 nm; mean ± standard error, 3-5 replicates; pH 6.0
Method: as §1

[11] = substrate: O=[N+]([O-])c1ccc(O[C@@H]2O[C@H](CO)[C@@H](O[C@@H]3O[C@H](CO)[C@@H](O[C@@H]4O[C@H](CO)[C@@H](O)[C@H](O)[C@H]4O)[C@H](O)[C@H]3O)[C@H](O)[C@H]2O)cc1; test: as above; type: biochemical, Reticulitermes flavipes; conditions: other: synthetic NP substrates; read kinetically at 420 nm; mean ± standard error, 3-5 replicates; pH 6.0
Method: as §1

[12] = substrate: OCc1ccccc1O[C@@H]1O[C@H](CO)[C@@H](O)[C@H](O)[C@H]1O; test: Activity of recombinant RfBGluc-1 towards natural substrates, endpoint glucose detection assay; type: biochemical, Reticulitermes flavipes; conditions: other: natural substrates; endpoint at 505 nm, glucose detection reagent; mean ± standard error
Method: (§2) Natural carbohydrate substrates (Table 2) were tested in endpoint assays in which color development was enabled using 439-90901 glucose-mutarose detection reagent (Wako Chemical; Richmond, Va.). Assays were conducted in 125 μL for 5 min at room temperature as described above and stopped with the addition of 125 μL glucose detection reagent. After 1 min, the absorbance was read at 505 nm.

[13] = substrate: OC[C@H]1O[C@@H](O[C@H]2[C@H](O)[C@@H](CO)OC(O)[C@@H]2O)[C@H](O)[C@@H](O)[C@@H]1O; test: as above; type: biochemical, Reticulitermes flavipes; conditions: other: natural substrates; endpoint at 505 nm, glucose detection reagent; mean ± standard error
Method: as §2

[14] = substrate concentration providing ½ maximal activity

Method for Cell-1: Thermal stability tests were conducted using 1.5% CMC in 100 mM sodium phosphate at the optimal pH of 7. Temperature-cofactor studies were performed using 1.5% CMC dissolved in 100 mM sodium phosphate (pH 7) alone, plus 4 mM EDTA (final concentration), or plus 10 mM calcium chloride (final concentration). Pre-incubations took place for 0-5 days at 25° C. or 0-60 min at 60° C. or 70° C.; reactions were terminated by the combination of adding stop solution and boiling for 10 min, and then assays were read at 25° C.
Calcium as a cofactor in β-1,4-endoglucanase Cell-1 hydrolytic activity and temperature stability: The effects of calcium on recombinant Cell-1 activity were investigated using calcium chloride as a calcium source and EDTA as a potential calcium chelator.

## O=C(O)CN(CCN(CC(=O)O)CC(=O)O)CC(=O)O [EDTA, ethylenediaminetetraacetate]
RfLac6; at concentrations as low as 0.01 mM
  effect on RfLac6 activity: completely inhibited
Cell-1; incubations over a 5-day period at about 25° C.
  effect on Cell-1 CMC endoglucanase activity: slightly inhibitory
Cell-1; pre-incubation at 60° C. and 70° C., 0-60 min
  effect on Cell-1 temperature stability: rapidly reduced temperature stability; also recorded: reduces temperature stability

## O=C(O)CS [TGA, thioglycolic acid]
RfLac6
  concentration up to which RfLac6 activity is enhanced, inhibitory above: ≤ 10 mM

## OC[C@@H]1[C@@H](O[C@@H]2O[C@H](CO)[C@@H](O)[C@H](O)[C@H]2O)[C@H](O)[C@@H](O)c2nccn21 [cellobioimidazole (CBI), cellobioimidazole]
Recombinant RfBGluc-1
  inhibition of recombinant RfBGluc-1: concentration-dependent inhibition

## CCCCCCCC(=O)Oc1cccc2ccccc12 [α-naphthyl caprylate]
[1]
  gut esterase activity toward the substrate: lowest esterase staining activity

## CCC(=O)Oc1cccc2ccccc12 [α-naphthyl propionate]
[1]
  gut esterase activity toward the substrate: significantly greatest activity

## fluoromethyl cellobiose [fluoromethyl cellobiose (FMCB)]
Recombinant RfBGluc-1
  inhibition of recombinant RfBGluc-1: concentration-dependent inhibition

B1: RfLacA (Reticulitermes flavipes) (protein)
chain: TSVLLNSYLQPNDDIDRNTYLLNAKSNNCARICNGTEAPKICYYQWTIENYVTLSEACDNCPLNVTACYNAQCITADGYERSILSVNRKLPGPSIEVCLRDRVIVDITNNMAGRTTSIHWHGVFQKGSQYMDGVPMVTQCTIHEGDTFRYDFIANNEGTHFWHSHDGLQKLDGVTGNLVVRVPKNFDPNGQLYDFDLPEHKIFISDWLHLSADDHFPGLRATNPGQDANSFLINGRGRTLIGTQSTNTPYAQINVQWGRRYRLRIVGSLCTVCPTQLTIDGHKITVIATDGNSVAPARVDSLIIYSGERYDVVLEATNTEGSYWIHLKGLATCVGSRVYQLGVLQYENTTTNKLHALTPDPGYDGFPQPASYRVLNPENASCSIGSTGLCVTQLANSDPVPRDILTQLPDINYLLQFGFETFDSRSFFKAYDRYFVSPFLELLSSTVNNISFVSPPSPLLSQRGDVPDDILCPTGADGLPQCPGGNSYCTCVHVIKIKLGALVQIILSDQSPKSDLNHPFHIHGHAFYVLGMGQYAAGQTAQDLLNSLKSNVSSVSPAPVLKDTVAVPSGGYAIIKFRPKNPGYWFLHCHFLYHVATGMSVVLQVGETSDYPPTPDGFPKCGSFTPPVNTN
[2]
  Km: 34888 µM
  Vmax: 0.26 µM/min
[3]
  Vmax: 15.4 µM/min
[3]; [14]
  Km: 17527 µM
[4]
  Vmax: 0.247 µM/min
[4]; [14]
  Km: 5022 µM

B2: recombinant RfBGluc-1 β-glucosidase (Reticulitermes flavipes) (protein)
chain: ADVDNETLFTFPEDFKLGAATASYQIEGGWNADGKGVNIWDTLTHERSQLVVDKSSGDVADDSYHLYKEDVKLLKNMGAQLYRFSISWARILPEGHDNKVNQAGIEYYNKLIDELLDNGIEPMVTMYHWDLPQTLQDLGGWPNRELAKYSENYARVLFQNFGDRVKLWLTFNEPLTFMDAYASETGMAPSIDTPGIGDYLAAHTVILAHANIYRMYEREFKEEQKGKVGIALNIHWCEPVTNSTKDVEACERYQQFNLGIYAHPIFSVEGDYPSVLKARVDANSVTEGYTTSRLPKFTTEEVDFIRGTHDFLGLNFYTAVTGADGVEGEPPSRYRDMGAITSQDPDWPESASSWLRVVPWGFRKELNWIANEYGNPPIYITENGFSDYGGLNDTDRVLYYTEHLKEMLKAIHIDEVNVVGYTAWSLVDNFEWLRGYTERFGIHEVNFNDPSRPRVPKESAKVLTEIFNTRRIPERFLD
[5]
  Km: 1580 ± 190 µM
  Vmax: 4.2 µmol/min/mg
[6]
  Km: 1660 ± 70 µM
  Vmax: 22.9 µmol/min/mg
[7]
  Km: 900 ± 70 µM
  Vmax: 12.6 µmol/min/mg
[8]
  Km: 7570 ± 1170 µM
  Vmax: 8.77 µmol/min/mg
[9]
  Km: 1560 ± 40 µM
  Vmax: 13.8 µmol/min/mg
[10]
  Km: 590 ± 10 µM
  Vmax: 16.6 µmol/min/mg
[11]
  Km: 1630 ± 500 µM
  Vmax: 22.6 µmol/min/mg
[12]
  Km: 34300 ± 14750 µM
  Vmax: 278 µmol/min/mg
[13]
  Km: 630 ± 20 µM
  Vmax: 218 µmol/min/mg

Source: patent US8445240B2, “Termite enzymes and uses thereof for in vitro conversion of lignin-containing materials to fermentable products” (University of Florida Research Foundation, Inc., priority 2009, dated 2013)
